Laboratory results from paper PMC3978877.

Molecular target: TNFα (UniProt P06804)
Chain of UniProt P06804 (P06804 80-235): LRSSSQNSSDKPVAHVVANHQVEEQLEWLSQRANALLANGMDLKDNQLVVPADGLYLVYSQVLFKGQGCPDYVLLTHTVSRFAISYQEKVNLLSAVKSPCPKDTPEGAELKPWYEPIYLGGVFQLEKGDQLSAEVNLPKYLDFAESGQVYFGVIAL

B1: muTNFR-Fc (Fc fusion)
chain: VPAQVVLTPYKPEPGYECQISQEYYDRKAQMCCAKCPPGQYVKHFCNKTSDTVCADCEASMYTQVWNQFRTCLSCSSSCTTDQVEIRACTKQQNRVCACEAGRYCALKTHSGSCRQCMRLSKCGPGFGVASSRAPNGNVLCKACAPGTFSDTTSSTDVCRPHRICSILAIPGNASTDAVCAPESPTLSAIPRTLYVSQPEPTRSQPLDQEPGPSQTPSILTSLGSTPIIEQSTKGG
inhibition of TNF-mediated killing of lung murine fibroblasts (TNFα trimer 5 pM, actinomycin D 2 μg/ml, muTNFR-Fc 50 nM to 0.1 pM, 24 h); half-maximal inhibitory concentration: 0.1 nM
